Reference: publication PMC11875817

B1: Bacillus subtilis 168 thioredoxin TrxA (natural protein)
chain: MAIVKATDQSFSAETSEGVVLADFWAPWCGPCKMIAPVLEELDQEMGDKLKIVKIDVDENQETAGKYGVMSIPTLLVLKDGEVVETSVGFKPKEALQELVNKHL

What was measured:
[1] = biological target: Escherichia coli MG1655 thioredoxin reductase TrxB (Escherichia coli MG1655) (UniProt P0A9P4)
[2] = biological target: Bacillus subtilis 168 thioredoxin reductase TrxB (Bacillus subtilis 168) (UniProt P80880)
Chain of UniProt P80880 (P80880 whole entry): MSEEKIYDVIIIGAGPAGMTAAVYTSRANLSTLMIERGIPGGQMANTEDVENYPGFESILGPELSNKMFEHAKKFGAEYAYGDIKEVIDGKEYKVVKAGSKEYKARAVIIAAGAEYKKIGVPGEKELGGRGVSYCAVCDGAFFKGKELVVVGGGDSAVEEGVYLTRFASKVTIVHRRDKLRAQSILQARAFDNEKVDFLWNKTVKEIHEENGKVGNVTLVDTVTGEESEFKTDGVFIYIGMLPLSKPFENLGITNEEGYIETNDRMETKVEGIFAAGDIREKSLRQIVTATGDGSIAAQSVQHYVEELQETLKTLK

Chain of UniProt P0A9P4 (P0A9P4 whole entry): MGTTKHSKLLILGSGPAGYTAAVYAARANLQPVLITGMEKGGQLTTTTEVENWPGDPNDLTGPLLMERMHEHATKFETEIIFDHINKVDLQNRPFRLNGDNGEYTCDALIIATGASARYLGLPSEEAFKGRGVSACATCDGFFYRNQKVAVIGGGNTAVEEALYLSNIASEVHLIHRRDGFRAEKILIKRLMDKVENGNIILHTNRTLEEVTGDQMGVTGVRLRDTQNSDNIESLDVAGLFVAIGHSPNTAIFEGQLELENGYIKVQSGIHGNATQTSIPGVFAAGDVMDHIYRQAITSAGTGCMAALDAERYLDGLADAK

Molecule	Km of TrxB for its substrate TrxA; DTNB reduction assay (TNB release, A412), 50 nM ecTrxB, 0 to 6 μM ecTrxA, NADPH, no auranofin [1] [µM]	Km of TrxB for its substrate TrxA; DTNB reduction assay (TNB release, A412), 50 nM bsTrxB, 0 to 6 μM bsTrxA, NADPH, no auranofin [2] [µM]
Escherichia coli K-12 MG1655 thioredoxin TrxA (from UniProt P0AA25 1-109) (natural protein)	1.35	–
B1	–	1.72
